Test results: US20110052597A1

Key:
[1] = target: N-terminal FLAG-tagged fusion protein including most of the extracellular region of human IL-13Rα1 (human) (UniProt P78552); experiment: BIACORE, receptor ECR immobilized on CM5 chip, mAb in solution
[2] = target: T1, cynomolgus IL-13Rα1.ECR, N-terminal FLAG-tagged fusion protein (cynomolgus macaque); experiment: as above
T1 sequence: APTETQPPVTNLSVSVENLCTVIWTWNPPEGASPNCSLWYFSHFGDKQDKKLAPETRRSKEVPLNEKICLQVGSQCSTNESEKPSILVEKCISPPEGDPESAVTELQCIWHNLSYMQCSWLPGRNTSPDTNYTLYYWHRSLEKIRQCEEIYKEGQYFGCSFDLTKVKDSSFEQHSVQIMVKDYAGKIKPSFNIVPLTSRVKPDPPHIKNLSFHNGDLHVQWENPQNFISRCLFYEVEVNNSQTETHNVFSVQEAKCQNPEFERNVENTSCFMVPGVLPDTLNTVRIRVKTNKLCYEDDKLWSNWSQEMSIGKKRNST

Kd [1]: 0.207 nM
Kd [2]: 0.247 nM
B1: murine antibody 1D9 reported in WO 03/080675 (ECACC deposit 03032101) (antibody, from another filing, V domains shown)
VH: EVKLVESGGGLVKPGGSLKLSCAASGFTFSGYGMSWVRQTPEKRLEWVATISGLGGYTYYPDSVKGRFTISRDNAKNTLYLQMSSLRSDDTAFYYCARRFYGDYVGAMDYWGQGTSVTVSS
VL: DILMTQAAFSNPVTLGTSASISCRSSKSLLHSNGITYLYWYLQKPGQSPQLLIYQMSNLASGVPDRFSCSGSGTDFTLSISRVEAEDVGFYYCAQNLELPFTFGSGTKLEIE
